Assay results reported in the supplement of paper PMC9732359.
± gives the uncertainty stated by the source.

Assay: protein stability index of a GFP-peptide fusion (yeast GPS) (PSI 1-4); higher = more stable; sorted into four equal gates, so the index is relative within each strain
In short: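 The protein stability index combines read frequencies across sorting gates, each weighted by its gate number and then summed. To obtain those frequencies, a pooled yeast library of GFP fusions to tiled 17-residue yeast protein peptides, on a plasmid also expressing Cherry, was grown to mid-log phase in leucine-free medium. The cells were sorted into four equal gates by GFP/Cherry ratio before plasmid amplification by PCR and Illumina sequencing.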

| Sequence | protein stability index (doa10∆) | protein stability index (pdr5∆) | protein stability index (san1∆) | protein stability index (ubr1∆) |
| --- | --- | --- | --- | --- |
| YTMSNHGMSVDPRHIQL [RPO31] | 2.85 ± 0.066 | 2.91 ± 0.083 | 2.94 ± 0.053 | 3.01 ± 0.044 |
| LKRRQVIEQCYLKFIPL [SRB8] | 1.91 ± 0.045 | 1.98 ± 0.048 | 1.52 ± 0.082 | 1.83 ± 0.032 |
| YDKLPAGQNATVAVMSY [RET1] | 1.17 ± 0.046 | 1.31 ± 0.046 | 1.33 ± 0.13 | 1.18 ± 0.048 |
| RMMGCVKKQKSARGIET [FAS2] | 1.59 ± 0.09 | 1.4 ± 0.1 | 1.36 ± 0.16 | 1.48 ± 0.064 |
| QSLANIQYVTYLLTQQQ [SOH1] | 2.23 ± 0.048 | 2.4 ± 0.045 | 2.19 ± 0.047 | 2.41 ± 0.033 |
| QLLGDVMTYKGEVLGIT [RPO31] | 3.28 ± 0.11 | 3.43 ± 0.069 | 3.24 ± 0.14 | 3.33 ± 0.075 |
| ELSTDIILKTRQINKLI [SRB7] | 1.2 ± 0.13 | 1.19 ± 0.066 | 1.37 ± 0.23 | 1.2 ± 0.13 |
| TQQQPGAPGANARMPGM [SRP54] | 3.1 ± 0.12 | 2.89 ± 0.096 | 2.89 ± 0.25 | 2.7 ± 0.084 |
| FNNEAPPQTRKFQPPPG [SMB1] | 2.86 ± 0.1 | 3.11 ± 0.1 | 3.01 ± 0.075 | 3.13 ± 0.085 |
| YGGSRCANCVKERIIRA [RPL34A] | 1.56 ± 0.061 | 2.81 ± 0.074 | 2.44 ± 0.082 | 1.57 ± 0.065 |
| GIRIISLTYKKISLRDI [RPN3] | 1.78 ± 0.068 | 1.4 ± 0.065 | 1.29 ± 0.15 | 1.5 ± 0.053 |
| IHPIPSVTVSQGNYVTE [YMR129W/POM152] | 2.21 ± 0.055 | 2.6 ± 0.066 | 2.58 ± 0.073 | 2.43 ± 0.043 |
| YGDRMKLAKNLQIGDVV [RPO31] | 2.94 ± 0.13 | 3.49 ± 0.21 | 3.34 ± 0.1 | 3.57 ± 0.21 |
| PSYSPTSPGYSPGSPAY [RPO21] | 2.52 ± 0.067 | 2.27 ± 0.053 | 2.33 ± 0.1 | 2.02 ± 0.043 |
| TRLLNIVMQLRKCCNHP [ISW2] | 2.65 ± 0.062 | 2.84 ± 0.061 | 2.94 ± 0.049 | 2.84 ± 0.057 |
| RSNTGALMRCSFEETVE [RPO21] | 3 ± 0.074 | 3.02 ± 0.077 | 3.06 ± 0.061 | 3.01 ± 0.067 |
| LKENTYVMERPKNVPTS [YDL116W/NUP84] | 1.81 ± 0.1 | 2.13 ± 0.12 | 2.79 ± 0.15 | 2.96 ± 0.093 |
| TTTLAFRFQGGIIVAVD [PRE2] | 3.27 ± 0.096 | 3.07 ± 0.083 | 2.81 ± 0.072 | 3.26 ± 0.09 |
| VKNVKNSDLEFNTFWDE [ARP9] | 3.08 ± 0.088 | 3.13 ± 0.14 | 3.53 ± 0.11 | 3.46 ± 0.084 |
| PKSLNSNININVNNNNI [SWI1] | 3.03 ± 0.14 | 2.63 ± 0.12 | 3.04 ± 0.066 | 2.81 ± 0.098 |
| SAGRLYACISSRPGQSG [RPS8A] | 2.81 ± 0.095 | 3.07 ± 0.093 | 3.13 ± 0.088 | 3.03 ± 0.088 |
| LDENLNSLSSNLSSLIV [YJL041W/NSP1] | 2.41 ± 0.04 | 2.54 ± 0.061 | 2.66 ± 0.065 | 2.6 ± 0.044 |
| GGQRSLIALSLIMALLQ [SMC2] | 1.33 ± 0.056 | 1.52 ± 0.063 | 1.73 ± 0.099 | 2.24 ± 0.036 |
| INGEPSIHVNRVERSSR [RRI1] | 2.99 ± 0.078 | 3.01 ± 0.067 | 3.1 ± 0.053 | 3.1 ± 0.051 |
| SSSAQQTKSNGTAGGNT [YJL041W/NSP1] | 3.32 ± 0.12 | 3.46 ± 0.16 | 3.36 ± 0.078 | 3.28 ± 0.085 |
| SISGFKEALLGQLLKDH [ARP9] | 2.01 ± 0.19 | 2.29 ± 0.092 | 1.89 ± 0.08 | 2.26 ± 0.068 |

| Sequence | protein stability index (doa10∆) | protein stability index (pdr5∆) | protein stability index (san1∆) | protein stability index (ubr1∆) |
| --- | --- | --- | --- | --- |
| EDKRKVRSAEYYAKKRA [RPL16B] | 3.31 ± 0.1 | 3.38 ± 0.089 | 3.36 ± 0.071 | 3.46 ± 0.055 |
| YDRQLSSLFLDGLEKAA [FAS2] | 2.96 ± 0.084 | 2.93 ± 0.074 | 2.79 ± 0.095 | 2.95 ± 0.079 |
| LEPSGSYWGYKGAATGK [PRE10] | 2.37 ± 0.27 | – | – | 2.37 ± 0.16 |
| SRTATWLKNKFAEENIT [BRR2] | 1.69 ± 0.052 | 1.73 ± 0.037 | 2.23 ± 0.064 | 1.94 ± 0.053 |
| IPHIFYSLHQIRKDPNN [CSE2] | 2.7 ± 0.11 | 2.61 ± 0.071 | 2.5 ± 0.058 | 2.67 ± 0.042 |
| EANGATSFDRTKKTITP [RPL3] | 3.12 ± 0.15 | 2.91 ± 0.15 | 2.74 ± 0.12 | 3.17 ± 0.27 |
| DLIAEQVVTDYNILGNL [SSN2] | 2.52 ± 0.074 | 3.11 ± 0.077 | 2.28 ± 0.11 | 2.21 ± 0.063 |
| PSEDVAALKKTRKAARP [RPL6A] | 2.83 ± 0.062 | 3.02 ± 0.048 | 2.95 ± 0.039 | 3.05 ± 0.047 |
| SCRNPEHTDVIDELIDT [YIL149C/MLP2] | 2.68 ± 0.054 | 2.76 ± 0.061 | 2.58 ± 0.047 | 2.58 ± 0.035 |
| NKPIKRMLSSILDINVS [SWP82] | 2.52 ± 0.046 | 2.6 ± 0.041 | 2.48 ± 0.053 | 2.31 ± 0.027 |
| YDLVILKSGLPLSGLLF [YMR129W/POM152] | 3.61 ± 0.17 | 2.53 ± 0.13 | 3.51 ± 0.049 | 2.11 ± 0.18 |
| LSRLQKSGRINGFHGRL [SMC4] | 3.26 ± 0.15 | 3.57 ± 0.15 | 3.29 ± 0.081 | 3.19 ± 0.064 |
| TLDNPLLVDKDANGVSL [YJL039C/NUP192] | 3.17 ± 0.057 | 3.12 ± 0.048 | 3.08 ± 0.038 | 3.13 ± 0.035 |
| SAVLLETTLGEMAEKID [PRP8] | 1.12 ± 0.13 | 1.55 ± 0.098 | 1.21 ± 0.2 | 1.65 ± 0.11 |
| NDVQGIDDVQTIKVVKR [RPP1] | 3.08 ± 0.064 | 2.62 ± 0.066 | 2.69 ± 0.053 | 2.81 ± 0.056 |
| DDFEVNVASLVRVQFQF [GRR1] | 2.57 ± 0.059 | 1.77 ± 0.089 | 1.78 ± 0.18 | 1.5 ± 0.089 |
| EKERLESLTKEISAAHN [SMC3] | 3 ± 0.26 | 3.22 ± 0.15 | 2.79 ± 0.13 | 3.42 ± 0.19 |
| EHDLLRQIRPIMERIKS [ITC1] | 1.37 ± 0.28 | 2.3 ± 0.27 | – | – |
| SASRAKNMPVIYNNIVS [RGR1] | 2.42 ± 0.064 | 2.26 ± 0.064 | 2.31 ± 0.053 | 2.34 ± 0.047 |
| LKNFLSYESLKKRKIHN [MCD1] | 1.55 ± 0.038 | 1.46 ± 0.039 | 2.12 ± 0.048 | 1.59 ± 0.034 |
| IKTKQMSLKKCQEEVST [SMC2] | 2.48 ± 0.098 | 3.02 ± 0.095 | 3.03 ± 0.088 | 3.27 ± 0.059 |
| HSDRYHRVAENWRKQKG [RPL32] | – | 2.99 ± 0.2 | – | 2.6 ± 0.23 |
| TTLGKLSTSVGWKYEDV [RPL16A] | 2.87 ± 0.069 | 3 ± 0.071 | 2.97 ± 0.078 | 2.73 ± 0.073 |
| KRELKRAQEEVKRIQSV [RPT3] | 3.23 ± 0.096 | 3.39 ± 0.14 | 2.91 ± 0.096 | 3.38 ± 0.083 |
| KQLTLLRSKLFQFKLLQ [SMC4] | 1.93 ± 0.051 | 1.88 ± 0.048 | 1.69 ± 0.064 | 2.34 ± 0.038 |
| KEHDEIEEQGDALQDVE [DPB4] | 3.17 ± 0.092 | 3.39 ± 0.12 | 3.36 ± 0.06 | 3.36 ± 0.067 |
